Paper PMC12990809

What was measured:
Assay in all cases: pulldown
[1] = biological target: T1, aret (Drosophila melanogaster) (UniProt E1JHG6); details: 20 nM protein, 1.5 uM RNA pool; 20 mM HEPES pH 7.8, 70 mM KCl, 10 mM NaCl, 10% glycerol, 2 mM DTT, 0.1 ug/uL BSA; 30 min, 4 C (protocol of this paper; not …); cited from earlier work
T1 sequence: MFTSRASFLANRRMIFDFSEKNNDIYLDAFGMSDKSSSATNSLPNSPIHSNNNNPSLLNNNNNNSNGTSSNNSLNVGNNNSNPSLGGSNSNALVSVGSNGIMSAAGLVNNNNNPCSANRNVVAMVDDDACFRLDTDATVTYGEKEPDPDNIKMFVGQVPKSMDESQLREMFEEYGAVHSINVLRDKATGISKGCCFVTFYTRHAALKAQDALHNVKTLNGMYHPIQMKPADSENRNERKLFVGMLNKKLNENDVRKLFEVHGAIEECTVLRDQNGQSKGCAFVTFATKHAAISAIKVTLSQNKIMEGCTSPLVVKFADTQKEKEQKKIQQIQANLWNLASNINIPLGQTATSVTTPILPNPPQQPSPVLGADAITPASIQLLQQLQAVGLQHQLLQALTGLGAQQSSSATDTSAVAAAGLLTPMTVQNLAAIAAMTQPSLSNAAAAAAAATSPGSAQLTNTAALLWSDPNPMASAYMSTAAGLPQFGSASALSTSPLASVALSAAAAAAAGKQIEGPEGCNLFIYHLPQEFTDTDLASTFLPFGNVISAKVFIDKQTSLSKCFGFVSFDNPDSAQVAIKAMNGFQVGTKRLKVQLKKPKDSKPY

[2] = biological target: T2, NCU09742 (Neurospora crassa) (UniProt Q7SEI3); details: 20 nM protein, 1.5 uM RNA pool; 20 mM HEPES pH 7.8, 70 mM KCl, 10 mM NaCl, 10% glycerol, 2 mM DTT, 0.1 ug/uL BSA; 30 min, 4 C
T2 sequence: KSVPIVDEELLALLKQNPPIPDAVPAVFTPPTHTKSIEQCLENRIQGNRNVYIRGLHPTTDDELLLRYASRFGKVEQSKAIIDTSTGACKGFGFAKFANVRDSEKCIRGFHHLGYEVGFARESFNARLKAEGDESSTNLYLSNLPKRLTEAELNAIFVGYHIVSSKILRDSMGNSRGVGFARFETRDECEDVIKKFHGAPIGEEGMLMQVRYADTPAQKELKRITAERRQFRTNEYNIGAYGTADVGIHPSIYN

[3] = biological target: T3, LmjF.18.0190 (Leishmania major) (UniProt Q4QE23); details: 20 nM protein, 1.5 uM RNA pool; 20 mM HEPES pH 7.8, 70 mM KCl, 10 mM NaCl, 10% glycerol, 2 mM DTT, 0.1 ug/uL BSA; 30 min, 4 C
T3 sequence: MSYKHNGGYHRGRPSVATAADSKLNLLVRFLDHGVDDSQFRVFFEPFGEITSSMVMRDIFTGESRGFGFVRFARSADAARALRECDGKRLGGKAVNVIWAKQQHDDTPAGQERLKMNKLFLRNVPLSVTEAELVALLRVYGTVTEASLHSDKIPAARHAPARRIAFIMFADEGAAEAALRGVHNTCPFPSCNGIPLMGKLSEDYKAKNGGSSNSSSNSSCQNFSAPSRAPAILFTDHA

[4] = biological target: T4, tardbpl (Danio rerio) (UniProt A0A8M1PDP8); details: 20 nM protein, 1.5 uM RNA pool; 20 mM HEPES pH 7.8, 70 mM KCl, 10 mM NaCl, 10% glycerol, 2 mM DTT, 0.1 ug/uL BSA; 30 min, 4 C
T4 sequence: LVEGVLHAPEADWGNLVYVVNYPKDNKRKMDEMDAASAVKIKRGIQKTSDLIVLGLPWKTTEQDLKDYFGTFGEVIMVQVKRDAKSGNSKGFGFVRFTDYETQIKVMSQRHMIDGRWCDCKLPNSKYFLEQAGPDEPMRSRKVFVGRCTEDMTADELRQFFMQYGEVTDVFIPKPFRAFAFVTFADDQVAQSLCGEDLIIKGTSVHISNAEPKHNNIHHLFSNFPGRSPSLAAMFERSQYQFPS

[5] = biological target: T5, LmjF.34.4560 (Leishmania major) (UniProt Q4Q285); details: 20 nM protein, 1.5 uM RNA pool; 20 mM HEPES pH 7.8, 70 mM KCl, 10 mM NaCl, 10% glycerol, 2 mM DTT, 0.1 ug/uL BSA; 30 min, 4 C
T5 sequence: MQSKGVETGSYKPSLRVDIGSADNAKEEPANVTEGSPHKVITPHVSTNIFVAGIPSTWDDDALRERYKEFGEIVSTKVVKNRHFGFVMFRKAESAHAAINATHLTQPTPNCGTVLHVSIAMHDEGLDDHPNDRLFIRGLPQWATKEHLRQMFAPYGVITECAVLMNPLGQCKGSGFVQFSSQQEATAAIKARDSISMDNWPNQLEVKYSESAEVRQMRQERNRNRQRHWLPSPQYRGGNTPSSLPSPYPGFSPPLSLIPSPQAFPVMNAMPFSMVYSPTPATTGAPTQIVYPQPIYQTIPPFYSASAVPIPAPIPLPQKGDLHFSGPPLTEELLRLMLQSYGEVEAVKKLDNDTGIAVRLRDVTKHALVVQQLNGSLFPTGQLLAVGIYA

[6] = biological target: T6, hnrnpa0 (Xenopus tropicalis) (UniProt A0A8J0QIP1); details: 20 nM protein, 1.5 uM RNA pool; 20 mM HEPES pH 7.8, 70 mM KCl, 10 mM NaCl, 10% glycerol, 2 mM DTT, 0.1 ug/uL BSA; 30 min, 4 C
T6 sequence: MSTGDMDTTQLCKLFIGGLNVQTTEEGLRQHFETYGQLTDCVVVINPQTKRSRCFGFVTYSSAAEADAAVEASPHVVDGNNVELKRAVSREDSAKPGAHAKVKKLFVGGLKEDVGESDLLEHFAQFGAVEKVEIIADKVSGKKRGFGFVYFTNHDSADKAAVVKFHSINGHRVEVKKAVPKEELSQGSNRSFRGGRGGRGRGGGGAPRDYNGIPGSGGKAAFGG

[7] = biological target: T7, LmjF.27.2100 (Leishmania major) (UniProt E9ADJ0); details: 20 nM protein, 1.5 uM RNA pool; 20 mM HEPES pH 7.8, 70 mM KCl, 10 mM NaCl, 10% glycerol, 2 mM DTT, 0.1 ug/uL BSA; 30 min, 4 C
T7 sequence: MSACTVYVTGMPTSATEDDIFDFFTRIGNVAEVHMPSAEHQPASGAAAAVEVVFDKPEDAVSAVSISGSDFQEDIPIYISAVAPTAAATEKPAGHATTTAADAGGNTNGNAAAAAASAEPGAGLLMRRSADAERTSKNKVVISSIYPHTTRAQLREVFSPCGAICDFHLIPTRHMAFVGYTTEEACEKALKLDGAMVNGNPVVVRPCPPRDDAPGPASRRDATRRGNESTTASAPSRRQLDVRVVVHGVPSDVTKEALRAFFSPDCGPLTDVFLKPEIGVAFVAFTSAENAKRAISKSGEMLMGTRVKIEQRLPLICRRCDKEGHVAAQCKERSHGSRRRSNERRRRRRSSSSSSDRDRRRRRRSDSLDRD

[8] = biological target: T8, SCHCODRAFT_80278 (Schizophyllum commune) (UniProt A0ACF2ERL4); details: 20 nM protein, 1.5 uM RNA pool; 20 mM HEPES pH 7.8, 70 mM KCl, 10 mM NaCl, 10% glycerol, 2 mM DTT, 0.1 ug/uL BSA; 30 min, 4 C
T8 sequence: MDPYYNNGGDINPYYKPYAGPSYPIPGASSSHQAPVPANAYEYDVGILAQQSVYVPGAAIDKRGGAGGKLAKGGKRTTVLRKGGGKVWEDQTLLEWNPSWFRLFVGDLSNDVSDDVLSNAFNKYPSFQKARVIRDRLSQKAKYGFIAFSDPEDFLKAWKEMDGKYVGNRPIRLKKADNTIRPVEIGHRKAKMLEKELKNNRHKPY

[9] = biological target: T9, Tb11.01.3940 (Trypanosoma brucei) (UniProt Q382W9); details: 20 nM protein, 1.5 uM RNA pool; 20 mM HEPES pH 7.8, 70 mM KCl, 10 mM NaCl, 10% glycerol, 2 mM DTT, 0.1 ug/uL BSA; 30 min, 4 C
T9 sequence: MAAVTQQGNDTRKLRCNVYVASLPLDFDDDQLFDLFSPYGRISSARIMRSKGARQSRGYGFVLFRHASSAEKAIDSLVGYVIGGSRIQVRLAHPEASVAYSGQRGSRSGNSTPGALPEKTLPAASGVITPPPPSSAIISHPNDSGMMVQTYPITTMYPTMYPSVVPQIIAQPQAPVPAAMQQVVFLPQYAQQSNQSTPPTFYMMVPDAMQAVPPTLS

In the case of UNUGUGU [RNAcompete motif RNCMPT00003], the binding signal (z-score (mean of top ten 7-mers)) [1] is given as 21.4.
In the case of AUUAUUA [RNAcompete motif RNCMPT00676], the binding signal (z-score (mean of top ten 7-mers)) [2] is reported as 9.27.
CUCAUUU [RNAcompete motif RNCMPT00687] gave a binding signal (z-score (mean of top ten 7-mers)) [3] of 20.6.
UGAAUG [RNAcompete motif RNCMPT00683] showed a binding signal (z-score (mean of top ten 7-mers)) [4] of 11.3.
For ACAACU [RNAcompete motif RNCMPT00691], the binding signal (z-score (mean of top ten 7-mers)) [5] was 18.4.
In the case of AUUAGGA [RNAcompete motif RNCMPT00684], the binding signal (z-score (mean of top ten 7-mers)) [6] is reported as 8.79.
For GGAGGA [RNAcompete motif RNCMPT00667], the binding signal (z-score (mean of top ten 7-mers)) [7] was 6.1.
In the case of AACUAC [RNAcompete motif RNCMPT00678], the binding signal (z-score (mean of top ten 7-mers)) [8] is reported as 13.6.
Work on CUUAACC [RNAcompete motif RNCMPT00695] yielded a binding signal (z-score (mean of top ten 7-mers)) [9] of 14.8.
